From patent publication US20230391828A1, “REGULATORS OF CELL DIVISION” (TECHNISCHE UNIVERSITÄT DRESDEN, priority 2020, published 2023)
“Also recorded” adds a separate entry of the source. Bridge positions count the residues as written; N and C are the ends. Square brackets hold non-standard residues; d marks the D form. 2Nal = N[C@@H](Cc1ccc2ccccc2c1)C(=O)O; R8 = C=CCCCCCC[C@@](C)(N)C(=O)O; S5 = C=CCCC[C@](C)(N)C(=O)O

Each substance was assayed against T1, APC/C (Homo sapiens, UniProt Q9NYG5) (assay: In vitro APC/C ubiquitination assay driven by the E2 enzyme UBE2C, fluorophore-labelled securin substrate). Conditions: 100 μM, UBE2C, reaction time 45 min.
T1 construct: made in house; host or cells: SF9 insect cells (baculovirus)
Assay type: biochemical
Method: Proteins were separated by SDS-PAGE electrophoresis using precast Bolt 4-12% Bis-Tris Plus protein gels (Thermo Fisher Scientific) and Criterion XT Bis-Tris Midi Protein Gels (Bio-Rad). In different experiments, various conditions were used: in vitro APC/C ubiquitination assays—165 V, 40 min, SDS-MES running buffer (50 mM MES, 50 mM Tris base, 0.1% SDS, 1 mM EDTA, pH 7.3; Thermo Fisher Scientific); in vitro APC/C ubiquitination assays determining KM—165V, 1 h, SDS-MOPS running buffer (50 mM MOPS, 50 mM Tris base, 0.1% SDS, 1 mM EDTA, pH 7.7; Thermo Fisher Scientific); pull-down binding assay—165 V, 35 min, SDS-MES running buffer.
APC/C-dependent ubiquitination reactions were performed at 30° C. in 30 mM HEPES pH 7.4, 175 mM NaCl, 8 mM MgCl2, 0.05% Tween-20, 1 mM DTT and 5% glycerol and contained 20 nM recombinant APC/C (note, for testing the first generation of inhibitors, APC/C and Cdc20 immunoprecipitated from mitotic HeLa K cells was used), 340 nM Cdc20, 46 nM GST-UBA1, 340 nM UBE2C (alternatively 400 nM UBE2D1, 280 nM UBE2S), 21 μM His6-ubiquitin or if it is indicated 21 μM methylated-ubiquitin (BostonBiochem), 2.6 mM ATP, 10 mM phosphocreatine and 11 μM creatine kinase. As substrates, 35 nM fluorophore-labeled ubiquitin-cyclin B and 50 nM fluorophore-labeled securin were standardly used (fluorophore IRDye 800CW (LI-COR) was used for labelling). In case of KM and kcat determination, 50, 100, 250, 500, 750, 1000, 1250, 2500 and 5000 nM fluorophore-labelled securin was used. The reaction was done in the volume of 15 μl, it was quenched after the indicated time with LDS sample buffer (Thermo Fisher Scientific) supplemented with 100 mM DTT and subjected to SDS-PAGE. Detection of fluorescently labelled substrates was done by quantitative near-infrared scanning system Odyssey.

| Substance | inhibition of APC/C activity in vitro (ubiquitinated securin) |
| --- | --- |
| Ac-cyclo(2,11)-RCHWGPRTFWCR—NH2 (Ac-RCHWGPRTFWCR-NH2; disulfide 2-11; SMILES CC(=O)N[C@@H](CCCNC(=N)N)C(=O)N[C@H]1CSSC[C@@H](C(=O)N[C@@H](CCCNC(=N)N)C(N)=O)NC(=O)[C@H](Cc2c[nH]c3ccccc23)NC(=O)[C@H](Cc2ccccc2)NC(=O)[C@H]([C@@H](C)O)NC(=O)[C@H](CCCNC(=N)N)NC(=O)[C@@H]2CCCN2C(=O)CNC(=O)[C@H](Cc2c[nH]c3ccccc23)NC(=O)[C@H](Cc2c[nH]cn2)NC1=O) [G1-3] | the most potent molecule from items (b)-(e); also recorded: the most potent molecule from item (b) |
| Ac-cyclo(3,13)-THCDDPETWRWNCQRV-NH2 (Ac-THCDDPETWRWNCQRV-NH2; disulfide 3-13; SMILES CC(=O)N[C@H](C(=O)N[C@@H](Cc1c[nH]cn1)C(=O)N[C@H]1CSSC[C@@H](C(=O)N[C@@H](CCC(N)=O)C(=O)N[C@@H](CCCNC(=N)N)C(=O)N[C@H](C(N)=O)C(C)C)NC(=O)[C@H](CC(N)=O)NC(=O)[C@H](Cc2c[nH]c3ccccc23)NC(=O)[C@H](CCCNC(=N)N)NC(=O)[C@H](Cc2c[nH]c3ccccc23)NC(=O)[C@H]([C@@H](C)O)NC(=O)[C@H](CCC(=O)O)NC(=O)[C@@H]2CCCN2C(=O)[C@H](CC(=O)O)NC(=O)[C@H](CC(=O)O)NC1=O)[C@@H](C)O) [G1-7] | the most potent |
| cyclo(1,14)-[L 2-NaI L W K l E W E K R K p P] (cyclo(L[2Nal]LWK[dL]EWEKRK[dP]P); SMILES CC(C)C[C@@H]1NC(=O)[C@H](Cc2ccc3ccccc3c2)NC(=O)[C@H](CC(C)C)NC(=O)[C@@H]2CCCN2C(=O)[C@H]2CCCN2C(=O)[C@H](CCCCN)NC(=O)[C@H](CCCNC(=N)N)NC(=O)[C@H](CCCCN)NC(=O)[C@H](CCC(=O)O)NC(=O)[C@H](Cc2c[nH]c3ccccc23)NC(=O)[C@H](CCC(=O)O)NC(=O)[C@@H](CC(C)C)NC(=O)[C@H](CCCCN)NC(=O)[C@H](Cc2c[nH]c3ccccc23)NC1=O) [G2-4] | the most potent |
| cyclo(1,14)-[T F L W K W E W T K R K p P] (cyclo(TFLWKWEWTKRK[dP]P); SMILES CC(C)C[C@@H]1NC(=O)[C@H](Cc2ccccc2)NC(=O)[C@H]([C@@H](C)O)NC(=O)[C@@H]2CCCN2C(=O)[C@H]2CCCN2C(=O)[C@H](CCCCN)NC(=O)[C@H](CCCNC(=N)N)NC(=O)[C@H](CCCCN)NC(=O)[C@H]([C@@H](C)O)NC(=O)[C@H](Cc2c[nH]c3ccccc23)NC(=O)[C@H](CCC(=O)O)NC(=O)[C@H](Cc2c[nH]c3ccccc23)NC(=O)[C@H](CCCCN)NC(=O)[C@H](Cc2c[nH]c3ccccc23)NC1=O) [G2-8] | inhibit APC/C in vitro the most effectively compared to other molecules of item (f) |

Same assay, conditions: 100 μM, UBE2C, reaction time 45 min, 3 independent assays

| Substance | inhibition of APC/C activity in vitro compared with TAME |
| --- | --- |
| Ac-cyclo(4,11)-EWWZKLEIQRXRRA-NH2 (Ac-EWW[R8]KLEIQR[S5]RRA-NH2; staple 4-11; SMILES CC[C@H](C)[C@@H]1NC(=O)[C@H](CCC(=O)O)NC(=O)[C@H](CC(C)C)NC(=O)[C@H](CCCCN)NC(=O)[C@](C)(NC(=O)[C@H](Cc2c[nH]c3ccccc23)NC(=O)[C@H](Cc2c[nH]c3ccccc23)NC(=O)[C@H](CCC(=O)O)NC(C)=O)CCCCCCC=CCCC[C@@](C)(C(=O)N[C@@H](CCCNC(=N)N)C(=O)N[C@@H](CCCNC(=N)N)C(=O)N[C@@H](C)C(N)=O)NC(=O)[C@H](CCCNC(=N)N)NC(=O)[C@H](CCC(N)=O)NC1=O) [G3-4] [listing 1 of 2 here] | inhibit APC/C in vitro more efficiently than TAME |
| Ac-cyclo(5,9)-RWPQXIKDXQVRWW-NH2 (Ac-RWPQ[S5]IKD[S5]QVRWW-NH2; staple 5-9; SMILES CC[C@H](C)[C@@H]1NC(=O)[C@@](C)(NC(=O)[C@H](CCC(N)=O)NC(=O)[C@@H]2CCCN2C(=O)[C@H](Cc2c[nH]c3ccccc23)NC(=O)[C@H](CCCNC(=N)N)NC(C)=O)CCCC=CCCC[C@@](C)(C(=O)N[C@@H](CCC(N)=O)C(=O)N[C@H](C(=O)N[C@@H](CCCNC(=N)N)C(=O)N[C@@H](Cc2c[nH]c3ccccc23)C(=O)N[C@@H](Cc2c[nH]c3ccccc23)C(N)=O)C(C)C)NC(=O)[C@H](CC(=O)O)NC(=O)[C@H](CCCCN)NC1=O) [G3-3] [listing 1 of 2 here] | inhibit APC/C in vitro more efficiently than TAME |

What follows are substances tested on APC/C (assay: Ubiquitinated securin (Mean ± SD)). Conditions: 100 µM.
From the text: Table printed on a drawing sheet, Figure 6
Head of the field: Ubiquitinated securin (Mean ± SD)

| Substance | Ubiquitinated securin (Mean ± SD) [%] |
| --- | --- |
| Ac-cyclo(4,11)-EWWZKLEIQRXRRA-NH2 (Ac-EWW[R8]KLEIQR[S5]RRA-NH2; staple 4-11; SMILES CC[C@H](C)[C@@H]1NC(=O)[C@H](CCC(=O)O)NC(=O)[C@H](CC(C)C)NC(=O)[C@H](CCCCN)NC(=O)[C@](C)(NC(=O)[C@H](Cc2c[nH]c3ccccc23)NC(=O)[C@H](Cc2c[nH]c3ccccc23)NC(=O)[C@H](CCC(=O)O)NC(C)=O)CCCCCCC=CCCC[C@@](C)(C(=O)N[C@@H](CCCNC(=N)N)C(=O)N[C@@H](CCCNC(=N)N)C(=O)N[C@@H](C)C(N)=O)NC(=O)[C@H](CCCNC(=N)N)NC(=O)[C@H](CCC(N)=O)NC1=O) [G3-4] [listing 2 of 2 here] | 4.5 ± 7 |
| Ac-cyclo(4,11)-EWWZKLELQRXRRA-NH2 (Ac-EWW[R8]KLELQR[S5]RRA-NH2; staple 4-11; SMILES CC(=O)N[C@@H](CCC(=O)O)C(=O)N[C@@H](Cc1c[nH]c2ccccc12)C(=O)N[C@@H](Cc1c[nH]c2ccccc12)C(=O)N[C@]1(C)CCCCCCC=CCCC[C@@](C)(C(=O)N[C@@H](CCCNC(=N)N)C(=O)N[C@@H](CCCNC(=N)N)C(=O)N[C@@H](C)C(N)=O)NC(=O)[C@H](CCCNC(=N)N)NC(=O)[C@H](CCC(N)=O)NC(=O)[C@H](CC(C)C)NC(=O)[C@H](CCC(=O)O)NC(=O)[C@H](CC(C)C)NC(=O)[C@H](CCCCN)NC1=O) [G3-5] | 6.1 ± 7 |
| Ac-cyclo(5,9)-RWPQXIKDXQVRWW-NH2 (Ac-RWPQ[S5]IKD[S5]QVRWW-NH2; staple 5-9; SMILES CC[C@H](C)[C@@H]1NC(=O)[C@@](C)(NC(=O)[C@H](CCC(N)=O)NC(=O)[C@@H]2CCCN2C(=O)[C@H](Cc2c[nH]c3ccccc23)NC(=O)[C@H](CCCNC(=N)N)NC(C)=O)CCCC=CCCC[C@@](C)(C(=O)N[C@@H](CCC(N)=O)C(=O)N[C@H](C(=O)N[C@@H](CCCNC(=N)N)C(=O)N[C@@H](Cc2c[nH]c3ccccc23)C(=O)N[C@@H](Cc2c[nH]c3ccccc23)C(N)=O)C(C)C)NC(=O)[C@H](CC(=O)O)NC(=O)[C@H](CCCCN)NC1=O) [G3-3] [listing 2 of 2 here] | 5.1 ± 6 |
| Ac-cyclo(5,9)-RWPQXKWDXQVRRW-NH2 (Ac-RWPQ[S5]KWD[S5]QVRRW-NH2; staple 5-9; SMILES CC(=O)N[C@@H](CCCNC(=N)N)C(=O)N[C@@H](Cc1c[nH]c2ccccc12)C(=O)N1CCC[C@H]1C(=O)N[C@@H](CCC(N)=O)C(=O)N[C@@]1(C)CCCC=CCCC[C@@](C)(C(=O)N[C@@H](CCC(N)=O)C(=O)N[C@H](C(=O)N[C@@H](CCCNC(=N)N)C(=O)N[C@@H](CCCNC(=N)N)C(=O)N[C@@H](Cc2c[nH]c3ccccc23)C(N)=O)C(C)C)NC(=O)[C@H](CC(=O)O)NC(=O)[C@H](Cc2c[nH]c3ccccc23)NC(=O)[C@H](CCCCN)NC1=O) [G3-1] | 15.7 ± 8 |
